Reference: the nanobody polyreactivity screen of Harvey et al. (2022)

Experiment: yeast display, Sf9 membrane polyspecificity reagent, FACS + sequencing; frameworks hold sequencing errors
How it was run: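 Genes from sorted yeast were amplified by colony PCR, read by MiSeq 2 × 250 sequencing and filtered on CDR length. These cells carried a synthetic nanobody library in Saccharomyces cerevisiae BJ5465 and were sorted by FACS into low and high (top ~1%) gates on anti-HA and streptavidin fluorescence. Polyreactivity is labelled according to the gate of origin.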

Sequence | polyreactivity (PSR sort gate)
QVQLVESGGGLVQAGGSLRLSCAASGRTFALNAMGWYRQAPGKERELVAAISWSSGRTYYADSVKGRFTISRDNAKNTDYLKMNSLKPEDSAVYYCAALVAHKGDYWGQGTQVTVSS | high polyreactivity
QVQLVESGGGLVQAGGSLRLSCAASGSIFYRYAMGWYRQAPGKERELVAAIRSRTGRTYYADSVKGRFTISRDNAKNTVYLQMNCLNPEDTAVYYCAADKYFSARFDYWGQGTQVTVSS | high polyreactivity
QVQLQESGGGLMQAGGNLRLSCAASGYISTHYDMDWYRPAPGKERELVARIDDGAITNYADSVKGRFTISRDNAKNTVYLQMNSLKPEDTAVYYCAVYSGDDYYHDYWGQGTQVTVSS | low polyreactivity
QVQLVESGGGLVQAGGSLRLSCAASGSIFTKYAMGWYRQAPGKERELVAAINARGGSTYYADSVKGRFTISRDNAKNTVYLQMNSLKPEDTAVYYCAARYGVGRADYYWGQGTQVTVSS | high polyreactivity
QVQLVDSGGGLVQAGGSHRLSCAASGSTFYGNLMGWYRQAPGRERELVAAISGGCSTNYADSVKGRFTISRDNEKNTVYLQLNSLKPEDTAVYYCAARGVIRVGNAARYVAGYYWGQGTQVTVSS | high polyreactivity
QVQLVESGGGLVQAGGSLRLSCAASGNTFFKNAMGWYRQAPGKERELVAAISKRGGSTYYADSVKGRFTISRDNAKNTVYLQMNSLIPEDTAVYYCAADTFGVYASTYDYWGQGTQVTVSS | high polyreactivity
QDQLVESGGGLVQAGGSLRLSCAASGFNFYKYAMGWYRQAPGKERELVAAITGRGGSTYYADSVKGRFTISRDNAKNTVYLRMNSLNPEDTAVYYCAASQRSGHPSYDYWGQGTQVTVSS | high polyreactivity
QVQLVESVGGLVQAGGSLRLSSAASGRTFSNAKGWYRQAPGKERELVADISSGGSTNYADSVKGRFTISRDNAKNTVYLQMNSLKPEDPAVYYCAAVSGSLYGYSDDYWGQGTQVTVSS | low polyreactivity
QVQLVESGGGLVQAGGSLRLSCAASGLIFPSYVMGWYRLAPGKERELVAGITIGDRTYYADSVKGRFTISRDNAKNTVYLQMNSLKPEDTAVYYCAAVYTYAGRRFGYWGQGTQVTVSS | high polyreactivity
QVQLVESGGGLVQAGGSLRLSCAASGSTCDYNAMGWYRQAPGKERELVAAITSTGGNTYYADSVKGRFTISRDKAKNTVYLQMNSLKPADTAVYYCNKDVARYPYGKFDYWGQGTQVTVSS | low polyreactivity
QVQLVESGGGLVQAGGSLRLSCAASGRIFYWNAMGWYRQAPGKEREFVAAISWSGGSTYADSVKGRFTISRDNAKNTVYLQMNSLKPEDTAVYYCATRVYRSFRAYDYWGQGTQVTVSS | high polyreactivity
QVQLVESGGGLVQAGGSLRLSCAASGRTFRRYTMGWYRQAPGKERELVATISSGGSTYADSVKGRFTISRDNAKNTVYLQMNSLKPEDTAVYYCAATAIYPSAWRMDYWGQGTQVTVSS | high polyreactivity
QVQLVESGGGLVQAGGSLRISCAASGITFGRYTMGWYRQAPGKERELVAAITNGDITYYADSVKGRFTISRDNAKNTVYLQMNSLKPDDTAVYYCAADRYFWYDYWGQATQVTVSS | high polyreactivity
QVQLVESGGGLVQAGGSLRLSCAASGGTFRRYAMGWSRQAPGKERELVAAITRSGTNTYYADSVKGRFTISRDNAKNTVYLQMNSLNPEDTAVYYCAADGFGKYWGQGTQVTVSS | high polyreactivity
QVQLVESGGGLVQAGGSLRLSCAASGNTSPYSAMGWYRQAPGKEREWVAGISSGGTTNYADSVKGRFTISRDNAKNTVDLQMNSLKPVDTAVYYCAADEWYVECLGYFFAYDYWGQGTQVTVSS | low polyreactivity
QVQLVESGGGLVQSGGSLRLSCAASGRTIGAYAMGWYRQAPGKEREFVAAITFGGGPTYYADSVKGRFTISRDNAKNTVYLQMNSLKPEDTAVYYCAKRIDLSFPFARYDYWGQGTQVTVSS | low polyreactivity
QVQLVESGGGLVQAGGSLRLSCAASGRTFRIYAMGWYRPATGKEREMVATISGRGGNTYYADSVKGRFTISRDNAKNTVYLQMNSLKPDDTAVYYCNTVYLPNFQWFDYWGQGTQVTVSS | high polyreactivity
QVQLVESGGGLVQAGGSLRLSCAASGRTFDYNAIGWYRQAPGKERDFVAAISGRGGSTYYADSVKARFTISRDNAKNRVYLQMYSLKPEDTAVYYCAADLRFRYSGRYDYWGQGTQVTVSS | high polyreactivity
QVQLVESGGGLVQAGGSLRLSCAASGSTFIDYGMGWYRQAPGKERELVAAIDLDSGDTYYADSVKGRFTISRDNAKNTVYLQMNSLKPEDTAVYYCAAQYWYRYNYWGQGTQVTVSS | low polyreactivity
QVQLVESGGGLVQAGGSLRLSCAASGSTFILYAMGWYRQAPGKERELVAAITTSGGSTYYADSVKGRFTISRDNAKNTVYLQMKSLKPEDTAVYYCNGGLSVTHGTSIPFRNYEYWGQGTQVTVSS | low polyreactivity
QVQLVESRGGLVQAGRSLRLSCAASGRTFHRNTLGRYRQAPGKERELVAAITGDGRTNYADSVKGRFTISRDNAKNTVYLLMNSLKPEDTAGYYCAAQYYYSEAGRDYWGQGTQVTVSS | low polyreactivity
QVQLVESGGGLVQAGGSLRLSCAASGNTFYVNVMGWYRHAPGKEREFVAAISTRGVSTSYADSVKGRFTISRDYAKNTVYLQMNRLKPEDTAVYYCAKRFLPPGRAVTYDYWGQGTQVTVSS | high polyreactivity

Sequence | polyreactivity (PSR sort gate)
LVQLVESGGGLVHAGGSLRLSCAASGSTFNIYAMGWYRQAPGKERELVAAISSSGGRTYYADSVKGRFTISRDNAKNTVYFQMIRLKPEDTAVYYCAARSRRVSLIRDSYGYWGQGTQVNVSS | high polyreactivity
QVQLVESGGGLVQAGGSLRLSCAASGSTFLGNAMGWYRQAPGKERELVASIRWTTGSTYYADSVKGRFTISRDNAKNTVYLQMNSLKPEDTAVYYCAKGLYVQFDYWGLGTQVTVSS | low polyreactivity
QVQLVESGGGLVQAGGSLRLSCAASGSTFTSNAMGWYRQAPGKERELVASISWSGGRTYYADSVKGRFTISRDNAKNTVYLQMNSLKPEDTAVYYCAAASYQSRYWNYYWGQGTQVTVSS | high polyreactivity
QVQLVESGGGLVQAGGSLRLTCAASGSTIVRNAMGWYRQAPGKEREFVAAIDWRGGSTSYADSVKGRFTISRDNAKNTVYLQMHSLKPADTAVYYCAAARRARELRSGQGSTYGNEYWGLGTQVTVSS | high polyreactivity
QVQLVESGGGLVQAGGSLRLSCAASGNTFYQYAMGWYRQAPGKERELVAAIDWSGGSTYADSVKGRFTISRDNAKNTVYLQMNSLKPEDTAVYYCNASVKPSNVWSRGYDYWGQGTQVTVSS | low polyreactivity
QVQLVESGGGLVQAGGSLRLSCAASGFTFSNYAMGWYRQAPGKERELVAAISFRTGRTYYADSVKWRFTISRDNAKNTVFLQMNILKPEDTAVYYCAVQPYHSYLHNYWGQGTQVTVSS | high polyreactivity
QVQLVESGGGLVQAGGSLRLSCAASGIIFHYYAMGWYRQAPGKEREFVASISFSGSSTYYADSVKGRFTISRDNAKNTVYLQMNSLKPEDTAVYYCAARYLYGPKYYYWGQGTQVTVSS | high polyreactivity
QVQLVESGGGLVQEGGSLRLSCAASGFTFSLNTMGWYRQAPGKERELVAAINSGDSTYADSVKGRFTISRDNAKNTVYLQMNSLKPEDTAVYYCNADPDWWYPYNYWGQGTQVTVSS | low polyreactivity
QVLLVESGGCLVQAGGSVRLSCAASGSTFAPYVMGWYTQAPGKERELVADISTSGSTYYADSVKGRFTISRDNAKNTVYLQMNSMKPEDTAVYYCAAEDQRWFWTYDCWGQGTQVTVSS | high polyreactivity
QVQLVESGGGLVQAGGSLRLSCAASGFIYGLYAMGWYRQAPGKERELVASISRRGGSTYSADSVKGRVTISRDNAKNTVYLQMNSLKPEDTAVYYCAVDIVSIRGYTYGYWGQGTQVTVSS | high polyreactivity
QVQLVESGGGLVQAGGSLRLSCAASGRIIIEYAMGWYRQAPGKERELVASITSSGGRTTFADSVKGRFTISRDNAKNTVYLQMNSLKPEDTSVYYCAAKYYWYYSYSGIPLFDYWGQGTQVTVSS | low polyreactivity
QVQLVESGGGLVQAGGSLRLSCAASGFTFRVYAMGGYRPAPGKERELVAAITSGSSTTYADSVKGRFTISRDNAKNTVYLQMNSLKPEDTAVYYCNARRRGRVTGSYGYWGQGTQVTVSS | high polyreactivity
QVQLVESGGGLVQAGGSLRLSCAASGRNFYRYAMGRYREAPGKERELVAAIRYSGGRTYYADSVKGRFTISRDNAKNTFYLQMNSLKPEDTAVYYCASDGQWYYAPFRGGDYENDYWGQGTQVTLSS | low polyreactivity
QVQLVESGGGLVQAGGSLRLSCAASGSTFIAYAMGWYRQAPGKESELVAAITSGDGTYYADSVKGRFTISRDNAKNTVYLQMNSLKPEDTAVYYCAVGYYWNEPLYWYGDFDYWGQGTQVTVSS | high polyreactivity
QVQLVESGGGLVQAGGSLRLSCAASGFTFLWYAMGWYRQAPGKERELVAGISSDGSTYADSVKGRFTISRDNAKNTVYLQMNSLKQEDTAVYYCAAVNNSSIRDNDYWGQGTQVTVSS | low polyreactivity
QVQLVESGGGLVQAGGSLRLSCAASGRTFVRYAMGWYSQAPGKERELVAAISGIATRTYYADSVKGRFTISRDNAKNTVYLQMNSLKPEDTAVYYCNALYAKYDYWGQGTQVTVSS | high polyreactivity
QVQLQESVVGLEQAGGSLRLSCAASGNIFPTDRMGWYRQAPGKELEFVATISHGGSTNYADSVKGRFTISRVNAKNTVYLQLNSLKPEDTAVYYCAVWSLGRWRHYYWGQGTQVTVSS | low polyreactivity
QVQLVESGGGLVQAGGSLRLSCAASGSTFRGYAMGWNRPAPGKETELVAGITKRGGSTYYADSVKGRFTISRDNAKNTVYLQMNSLKPEDTAVYYCAAGKHRQAYEHDYWGQGTQVTVSS | high polyreactivity
QVQLVESGGGLVQAGGSLRLSCAASGSILRSYAMGWYRQAPGKERELVAVINGSGGRTYYADSVKGRFTISRDNAKNTVYLQMNSLKPEDTAVYYCNKRYRFTGIRDPFDYWGQGTQVTVSS | low polyreactivity
QVQLVESGGGLVQAGGSLRLSCAASGSIFPVYAMGWYRQAPGKDRELDATITDGGGDTYYADSVMGRFTISRDNAKNTVYLQMNSLKPEDTAVLYCAARSIPEWSAYWYDYWGQGTQVTVSS | low polyreactivity
QVQLVESGGGLVQPGGSLRLSCAASGFTFYLYALGWYRQAPVKERELVASISSGGRTYYADSVKGRFTISRDNAKNTVYVQMNRLKPADTAVYYCAARRPAWYWSAYRYYSEMDYWGQGTQVTVSS | high polyreactivity
